Data set [1] concerns the target TRF2 (Telomeric Repeat-binding Factor 2), full length (human). Description: ITC.
Data set [2] has as its target TRFH domain of TRF2 (TRF2 dimerization domain) (human). Description: ITC. Background: In ITC the heat of successive injections is recorded.
Data set [3] has as its target TRF2 (Telomeric Repeat-binding Factor 2), full length (human). The data set can be described thus: SAXS.
Data set [4] has the same target. The data set can be described thus: SEC-MALS + ITC. (Size exclusion chromatography separates by hydrodynamic size, large species first.)
For another data set, the target named is T1, RAP1 (human, UniProt Q9NYB0 1-399).
T1 sequence: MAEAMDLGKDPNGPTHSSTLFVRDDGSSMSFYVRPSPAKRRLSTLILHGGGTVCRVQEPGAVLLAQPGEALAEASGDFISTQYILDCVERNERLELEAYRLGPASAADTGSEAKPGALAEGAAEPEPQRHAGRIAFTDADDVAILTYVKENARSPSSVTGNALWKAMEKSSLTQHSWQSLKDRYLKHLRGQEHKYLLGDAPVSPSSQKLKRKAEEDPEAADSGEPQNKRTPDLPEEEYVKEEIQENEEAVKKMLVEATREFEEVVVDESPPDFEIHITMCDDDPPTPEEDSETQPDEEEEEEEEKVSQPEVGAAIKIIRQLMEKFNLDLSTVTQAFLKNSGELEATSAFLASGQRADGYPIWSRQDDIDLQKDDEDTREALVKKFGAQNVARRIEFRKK
The data set can be described thus: ITC.

The target of data set [5] is TRF2 (Telomeric Repeat-binding Factor 2), full length (human). The data set can be described thus: ITC. This is another data set of the same source.

With “Apollo-YLP peptide (Apollo residues 494-511)”, the Kd in data set [1] came to 46 nM; in data set [2], 59 nM.
In the case of “TRF2 (Telomeric Repeat-binding Factor 2), full length (natural protein)”, the stoichiometry N in data set [3] and in data set [4] was 2 throughout.

B1: T2-S1-S2 (T2AG3 duplex) (dsDNA)
DNA 1: CTAGGGTTAGGGTTAG
DNA 2: CTAACCCTAACCCTAG
On to B1, for which, in the data set with RAP1, the binding result is given as “no binding”.

B2: RAP1 (Repressor Activator Protein 1), full length (natural protein)
chain: T1 sequence
For B2, in data set [5], the KD of the high affinity site (two-independent sites model) was under 1 nM and the KD of the lower affinity site (two-independent sites model) amounted to 500 nM.

Usually Kd stands for a measure of binding affinity in units of concentration. As a reminder, the stoichiometry N is the number of molecules, sites or subunits per partner or assembly.
